According to the supplement of paper PMC7877785:
± gives the uncertainty stated by the source.

Assay: self-splicing fitness, log relative to wild type (ln ratio); higher = more splicing; Tetrahymena group I intron in knt gene, E. coli kanamycin selection, DiMSum; sequences stand for … in CUCUCU…GGAGGGAAAAGUUAUCAGGCAUGCACCUGGUAGCUAGUCUUUAAACCAAUAGAUUGCAUCGGUUUAAAAGGCAAGACCGUCAAAUUGCGGGAAAGGGGUCAACAGCCGUUCAGUACCAAGUCUCAGGGGAAACUUUGAGAUGGCCUUGCAAAGGGUAUGGUAAUAAGCUGACGGACAUGGUCCUAACCACGCAGCCAAGUCCUAAGUCAACAGAUCUUCUGUUGAUAUGGAUGCAGUUCACAGACUAAAUGUCGGUCGGGGAAGAUGUAUUCUUCUCAUAAGAUAUAGUCGGACCUCUCCUUAAUGGGAGCUAGCGGAUGAAGUGAUGCAACACUGGAGCCGCUGGGAACUAAUUUGUAUGCGAAAGUAUAUUGAUUAGUUUUGGAGUACUCGUGGUCG
In short: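 Colonies from six replicate transformations of E. coli BL21(DE3) were pooled and amplicon-sequenced on an Illumina HiSeq 2500. The library placed an intron with all eight P1ex-region nucleotides randomised inside the knt kanamycin-resistance gene on pET-22b(+), and cells grew overnight at 37°C or 30°C on LB agar with or without 25 μg/mL kanamycin (plus 100 μg/mL carbenicillin, 50 μM IPTG, 0.2% rhamnose). Fitness is the DiMSum error-weighted combination of wild-type-normalised replicate fold changes, kanamycin versus none.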

| Sequence | self-splicing fitness (ln) (30 °C) | self-splicing fitness (ln) (37 °C) |
| --- | --- | --- |
| AUUCAGCAAUAUUACGGGCA | -1.47 ± 0.14 | -0.16 ± 0.14 |
| CGGGAGCAAUAUUACGACCU | -0.87 ± 0.14 | -0.864 ± 0.18 |
| UCAAAGCAAUAUUACGUUAA | -3.54 ± 0.19 | -0.92 ± 0.12 |
| UGCAAGCAAUAUUACGGGUU | -2.62 ± 0.095 | -1.23 ± 0.093 |
| GUUUAGCAAUAUUACGCACU | -1.41 ± 0.15 | -0.128 ± 0.15 |
| CGUAAGCAAUAUUACGCGGA | -3.23 ± 0.19 | -1.84 ± 0.16 |
| GUUGAGCAAUAUUACGGCAC | -0.787 ± 0.17 | -0.486 ± 0.2 |
| CCGUAGCAAUAUUACGUCGG | -3.57 ± 0.17 | -3.02 ± 0.23 |
| CGAGAGCAAUAUUACGAUUU | -1.8 ± 0.33 | -2.17 ± 0.37 |
| UGGAAGCAAUAUUACGUUAG | -0.289 ± 0.094 | -1.07 ± 0.14 |
| AUACAGCAAUAUUACGCGUC | -3.72 ± 0.14 | -2.6 ± 0.13 |
| GCCGAGCAAUAUUACGAUCA | -1.91 ± 0.12 | -1.69 ± 0.15 |
| GCGAAGCAAUAUUACGGAGG | -2.1 ± 0.18 | -0.467 ± 0.12 |
| CAAAAGCAAUAUUACGCGAA | -3.36 ± 0.23 | -1.3 ± 0.17 |
| UAGAAGCAAUAUUACGAGCA | -1.27 ± 0.096 | 0.167 ± 0.1 |
| UAGAAGCAAUAUUACGUACA | -0.549 ± 0.14 | 0.208 ± 0.16 |
| UUCGAGCAAUAUUACGUUCA | -1.99 ± 0.13 | -1.15 ± 0.13 |
| CCACAGCAAUAUUACGUGCG | -2.79 ± 0.11 | -1.72 ± 0.12 |
| UGACAGCAAUAUUACGAAUG | -0.535 ± 0.086 | -0.604 ± 0.1 |

| Sequence | self-splicing fitness (ln) (30 °C) | self-splicing fitness (ln) (37 °C) |
| --- | --- | --- |
| GUGAAGCAAUAUUACGGUGU | -1.8 ± 0.063 | -0.777 ± 0.082 |
| UUGUAGCAAUAUUACGGCCU | -0.844 ± 0.2 | -0.408 ± 0.25 |
| UCCGAGCAAUAUUACGUCGC | -3.15 ± 0.28 | -1.24 ± 0.3 |
| GUUUAGCAAUAUUACGUUAA | -1.87 ± 0.33 | -1.68 ± 0.24 |
| CAAUAGCAAUAUUACGGCUA | -2.26 ± 0.22 | -2.1 ± 0.19 |
| AAACAGCAAUAUUACGAAAA | -2.95 ± 0.15 | -1.8 ± 0.14 |
| ACAGAGCAAUAUUACGGCGC | -1.6 ± 0.14 | -0.0642 ± 0.18 |
| GGGAAGCAAUAUUACGGAAA | -1.4 ± 0.32 | -1.41 ± 0.36 |
| UGGGAGCAAUAUUACGGAGG | -3.43 ± 0.36 |  |
| GCUUAGCAAUAUUACGCAAU | -0.651 ± 0.14 | -1.35 ± 0.13 |
| CAACAGCAAUAUUACGGGGG | -2.07 ± 0.13 | -1.08 ± 0.1 |
| CUGCAGCAAUAUUACGUGCU | -4.44 ± 0.23 | -2.54 ± 0.19 |
| CCCGAGCAAUAUUACGUCGG | -3.02 ± 0.25 | -2.41 ± 0.32 |
| AUAAAGCAAUAUUACGACUG | -1.14 ± 0.085 | -0.454 ± 0.098 |
| AGAGAGCAAUAUUACGUUAU | -2.61 ± 0.18 | -2.64 ± 0.48 |
| CUGCAGCAAUAUUACGGCAG | -2.63 ± 0.22 | -2.27 ± 0.2 |
| UGCGAGCAAUAUUACGUCUA | -0.974 ± 0.15 | -0.453 ± 0.17 |
| GUAAAGCAAUAUUACGAUAU | -0.349 ± 0.087 | -0.0732 ± 0.11 |
| GCAUAGCAAUAUUACGCUGU | -3.06 ± 0.17 | -1.69 ± 0.23 |
